The record followed here is paper PMC5518674.

This data set concerns the target T1, HisMBP-TZAP Znf9-11 (UniProt P10074 521-600).
T1 sequence: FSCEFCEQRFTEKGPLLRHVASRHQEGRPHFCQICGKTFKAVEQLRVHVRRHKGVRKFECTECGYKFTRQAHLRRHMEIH
In words: EMSA.

B1: Telo6 (dsDNA)
DNA 1: GGTCGACTCTAGAGATCGAAGGGTTAGGGTTAGGGTTAGGGTTAGGGTTAGGGTTACGATCCCGGGTACCGAGCTCGA
DNA 2: TCGAGCTCGGTACCCGGGATCGTAACCCTAACCCTAACCCTAACCCTAACCCTAACCCTTCGATCTCTAGAGTCGACC
B1: the binding result is “binds”.
